According to patent publication US20160362487A1:
Each block holds one substance with its values, some of them ahead of it.

Experiments:
[1] = target: cynomolgus monkey IL-33 expressed with a C-terminal hexahistidine tag (cynomolgus monkey); test: BLI; captured MfIL-33-6His pre-complexed with mAb-1 H4H9640P
[2] = target: cynomolgus monkey IL-33 expressed with a C-terminal hexahistidine tag (cynomolgus monkey); test: BLI; captured MfIL-33-6His pre-complexed with mAb-1 H1M9565N
[3] = target: cynomolgus monkey IL-33 expressed with a C-terminal hexahistidine tag (cynomolgus monkey); test: BLI; captured MfIL-33-6His, mAb-1 step with Isotype control
[4] = target: cynomolgus monkey IL-33 expressed with a C-terminal hexahistidine tag (cynomolgus monkey); test: BLI; captured MfIL-33-6His pre-complexed with mAb-1 H4H9664P
[5] = target: cynomolgus monkey IL-33 expressed with a C-terminal hexahistidine tag (cynomolgus monkey); test: BLI; captured MfIL-33-6His pre-complexed with mAb-1 H4H9665P
[6] = target: cynomolgus monkey IL-33 expressed with a C-terminal hexahistidine tag (cynomolgus monkey); test: BLI; captured MfIL-33-6His pre-complexed with mAb-1 H1M9566N
[7] = target: cynomolgus monkey IL-33 expressed with a C-terminal hexahistidine tag (cynomolgus monkey); test: BLI; captured MfIL-33-6His pre-complexed with mAb-1 H1M9559N
[8] = target: cynomolgus monkey IL-33 expressed with a C-terminal hexahistidine tag (cynomolgus monkey); test: BLI; mAb-1 on captured MfIL-33-6His
[9] = target: cynomolgus monkey IL-33 expressed with a C-terminal hexahistidine tag (cynomolgus monkey); test: BLI; captured MfIL-33-6His, mAb-1 step with Buffer
[10] = target: cynomolgus monkey IL-33 expressed with a C-terminal hexahistidine tag (cynomolgus monkey); test: BLI; captured MfIL-33-6His pre-complexed with mAb-1 H4H9667P
[11] = target: human IL-33 (R&D Systems, #3625-IL-010/CF) (human) (UniProt O95760); test: BLI; hIL-33 pre-mixed with mAb-2 H4H9667P
[12] = target: human IL-33 (R&D Systems, #3625-IL-010/CF) (human) (UniProt O95760); test: BLI; hIL-33 pre-mixed with mAb-2 H4H9670P
[13] = target: human IL-33 (R&D Systems, #3625-IL-010/CF) (human) (UniProt O95760); test: BLI; hIL-33 pre-mixed with mAb-2 H4H9676P
[14] = target: human IL-33 (R&D Systems, #3625-IL-010/CF) (human) (UniProt O95760); test: BLI; hIL-33 pre-mixed with mAb-2 H1M9559N

cynomolgus monkey IL-33 expressed with a C-terminal hexahistidine tag (cynomolgus monkey), sequence (chain, as listed by the source limits assumed): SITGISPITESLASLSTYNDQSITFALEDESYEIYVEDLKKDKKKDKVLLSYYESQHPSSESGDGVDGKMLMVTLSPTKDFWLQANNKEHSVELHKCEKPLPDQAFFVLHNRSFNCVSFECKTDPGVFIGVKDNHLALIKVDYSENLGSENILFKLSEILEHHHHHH
human IL-33 (R&D Systems, #3625-IL-010/CF) (human), sequence (O95760 112-270 limits assumed): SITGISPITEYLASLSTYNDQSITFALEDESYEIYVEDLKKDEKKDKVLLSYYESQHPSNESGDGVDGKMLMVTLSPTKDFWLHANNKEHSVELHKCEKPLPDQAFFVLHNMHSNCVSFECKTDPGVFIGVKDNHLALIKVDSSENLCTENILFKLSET

mAb-2 Binding to the Pre-complex of mAb-1 & MfIL-33-6xHis [1]: 0.02 nm
mAb-2 Binding to the Pre-complex of mAb-1 & MfIL-33-6xHis [2]: 0.04 nm
mAb-2 Binding to the Pre-complex of mAb-1 & MfIL-33-6xHis [3]: 0.01 nm
mAb-2 Binding to the Pre-complex of mAb-1 & MfIL-33-6xHis [4]: 0.02 nm
mAb-2 Binding to the Pre-complex of mAb-1 & MfIL-33-6xHis [5]: 0.03 nm
mAb-2 Binding to the Pre-complex of mAb-1 & MfIL-33-6xHis [6]: 0.04 nm
mAb-2 Binding to the Pre-complex of mAb-1 & MfIL-33-6xHis [7]: 0.01 nm
mAb-1 Binding (nm) [8]: 0.01 nm
mAb-2 Binding to the Pre-complex of mAb-1 & MfIL-33-6xHis [9]: 0.03 nm
mAb-2 Binding to the Pre-complex of mAb-1 & MfIL-33-6xHis [10]: 0.03 nm
Substance: isotype control antibody

mAb-1 Binding to the Pre-complex of mAb-2 & hIL-33 [11]: 0.01 nm
mAb-1 Binding to the Pre-complex of mAb-2 & hIL-33 [12]: 0.01 nm
mAb-1 Binding to the Pre-complex of mAb-2 & hIL-33 [13]: 0.01 nm
Substance: Isotype control 1 (antibody)

mAb-1 Binding to the Pre-complex of mAb-2 & hIL-33 [14]: 0.02 nm
Substance: Isotype control 2 (antibody)
